The results in this text go back to publication PMC5497066, “GroEL actively stimulates folding of the endogenous substrate protein PepQ” (Nature Communications, 2017).

Assay [1] has as its target single-ring truncation mutant, SRΔ526 (E. coli). Briefly: cell-based or functional assay.
The target in assay [2] is T1, wild-type GroEL tetradecamer (E. coli, UniProt P0A6F5 1-548).
T1 construct: GroEL (Hsp60 chaperonin), E. coli, homo-oligomer of 14 subunits of 57 kDa in two seven-membered rings; also called WT; full-length GroEL; source: E. coli BL21, purified (anion exchange, ammonium sulfate precipitation, Affi Blue Gel); copies: 14
Briefly: cryo-EM structure; acid-urea denatured PepQ (7 μM final) titrated into GroEL or Δ526 (8 μM tetradecamers) in TKM buffer, no nucleotide, room temperature 5 min; asymmetric 3D classification and refinement. The conditions noted are these: both partners purified.

The target of assay [3] is T2, asymmetric wild-type GroEL-GroES-ADP complex (E. coli, UniProt P0A6F5 1-548; P0A6F9 1-97).
T2 construct: GroEL, E. coli, wild type; GroES, ring-shaped co-chaperonin, E. coli; GroES caps one ring; also called GroEL-GroES-ADP bullets; source: GroEL from E. coli BL21 and GroES from E. coli BL21(DE3), each purified; complex formed beforehand with ADP; copies: 14 +
Put plainly: protease protection (encapsulation); denatured PepQ-24F (100 nM) bound to wild-type or Δ526 GroEL-GroES-ADP bullets (200 nM) or full-length or Δ526 single-ring GroEL (300 nM) with GroES (600 nM); single turnover with ATP (2 mM), quenched after 10 s; unencapsulated PepQ digested with Proteinase K; SDS-PAGE, fluorescein scan. Particulars: both partners purified.

Assay [4] addresses T1, wild-type GroEL tetradecamer. Briefly: fluorescence correlation spectroscopy; acid-urea denatured PepQ-24TMR (2 nM) with GroEL (1 μM) in TKM buffer (50 mM Tris-HCl, pH 7.4, 50 mM KOAc, 10 mM Mg(OAc)2, 2 mM DTT); shift in diffusion time. Particulars: both partners purified.

B1: wild type E. coli PepQ (enzyme, UniProt P21165 1-443, looked up)
chain: MESLASLYKNHIATLQERTRDALARFKLDALLIHSGELFNVFLDDHPYPFKVNPQFKAWVPVTQVPNCWLLVDGVNKPKLWFYLPVDYWHNVEPLPTSFWTEDVEVIALPKADGIGSLLPAARGNIGYIGPVPERALQLGIEASNINPKGVIDYLHYYRSFKTEYELACMREAQKMAVNGHRAAEEAFRSGMSEFDINIAYLTATGHRDTDVPYSNIVALNEHAAVLHYTKLDHQAPEEMRSFLLDAGAEYNGYAADLTRTWSAKSDNDYAQLVKDVNDEQLALIATMKAGVSYVDYHIQFHQRIAKLLRKHQIITDMSEEAMVENDLTGPFMPHGIGHPLGLQVHDVAGFMQDDSGTHLAAPAKYPYLRCTRILQPGMVLTIEPGIYFIESLLAPWREGQFSKHFNWQKIEALKPFGGIRIEDNVVIHENNVENMTRDLKLA
notes: PepQ (Xaa-Pro dipeptidase, prolidase), E. coli, monomer of about 50 kDa; native form is a homodimer; also called prolidase; metalloprotease PepQ; source: E. coli BL21(DE3), purified (anion exchange, ammonium sulfate, Phenyl Sepharose)
On to B1, for which the “observed folding rate constant of PepQ by recovery of enzymatic activity, bound to SRΔ526 (300 nM) and refolded with GroES (600 nM) and ATP (2 mM)” value in assay [1] stood at 0.332 min⁻¹. Besides, in assay [2], the binding result was “binds”.

B2: PepQ-24F (enzyme, E. coli, UniProt P21165 1-443, looked up)
chain: MESLASLYKNHIATLQERTRDALCRFKLDALLIHSGELFNVFLDDHPYPFKVNPQFKAWVPVTQVPNCWLLVDGVNKPKLWFYLPVDYWHNVEPLPTSFWTEDVEVIALPKADGIGSLLPAARGNIGYIGPVPERALQLGIEASNINPKGVIDYLHYYRSFKTEYELACMREAQKMAVNGHRAAEEAFRSGMSEFDINIAYLTATGHRDTDVPYSNIVALNEHAAVLHYTKLDHQAPEEMRSFLLDAGAEYNGYAADLTRTWSAKSDNDYAQLVKDVNDEQLALIATMKAGVSYVDYHIQFHQRIAKLLRKHQIITDMSEEAMVENDLTGPFMPHGIGHPLGLQVHDVAGFMQDDSGTHLAAPAKYPYLRCTRILQPGMVLTIEPGIYFIESLLAPWREGQFSKHFNWQKIEALKPFGGIRIEDNVVIHENNVENMTRDLKLA
modifications: fluorescein (5-iodoacetamidofluorescein) on the cysteine at position 24
notes: PepQ, E. coli, with the surface-exposed cysteine A24C; also called Fluorescein-labelled PepQ; A24C PepQ labelled with fluorescein; source: E. coli BL21(DE3), purified, labelled and re-purified (PD-10, MonoQ)
In the case of B2, the binding result in assay [3] is given as “binds”.

B3: PepQ-24TMR (enzyme, E. coli, UniProt P21165 1-443, looked up)
chain: MESLASLYKNHIATLQERTRDALCRFKLDALLIHSGELFNVFLDDHPYPFKVNPQFKAWVPVTQVPNCWLLVDGVNKPKLWFYLPVDYWHNVEPLPTSFWTEDVEVIALPKADGIGSLLPAARGNIGYIGPVPERALQLGIEASNINPKGVIDYLHYYRSFKTEYELACMREAQKMAVNGHRAAEEAFRSGMSEFDINIAYLTATGHRDTDVPYSNIVALNEHAAVLHYTKLDHQAPEEMRSFLLDAGAEYNGYAADLTRTWSAKSDNDYAQLVKDVNDEQLALIATMKAGVSYVDYHIQFHQRIAKLLRKHQIITDMSEEAMVENDLTGPFMPHGIGHPLGLQVHDVAGFMQDDSGTHLAAPAKYPYLRCTRILQPGMVLTIEPGIYFIESLLAPWREGQFSKHFNWQKIEALKPFGGIRIEDNVVIHENNVENMTRDLKLA
modifications: tetramethylrhodamine (tetramethylrhodamine-5-iodoacetamide) on the cysteine at position 24
notes: PepQ, E. coli, with the surface-exposed cysteine A24C in the first helix of the N-terminal domain; also called PepQ-TMR; A24C PepQ labelled with tetramethylrhodamine; source: E. coli BL21(DE3), purified, labelled and re-purified (PD-10, MonoQ)
In the case of B3, in assay [4], the binding result is on record as “binds”.
